Here are results for three molecules from patent US20200377555A1.

Common to all, as to settings: remark: other sources report otherwise
The target in assay [1] is T1, UFV5367 (influenza A H1N1 A/Brisbane/59/07), A8C8J4.
For assay [2], the target named is T1, UFV5367 (influenza A H1N1 …). The assay can be described thus: ELISA, polypeptide coated, antibody titrated; average of 3 independent assays.
Assay [3] deals with Full length HA H1N1 A/Brisbane/59/07 (influenza A H1N1 A/Brisbane/59/07), B4URD6.
For assay [4], the target named is T1, UFV5367 (influenza A H1N1 …). The source holds these as a separate data set.
Assay [5] deals with UFV180499 H5 A/Hong Kong/156/97 (influenza A H5 A/Hong Kong/156/97).

B1: Fab fragment of mAb CR6261 (Fab, V domains shown)
VH: EVQLVESGAEVKKPGSSVKVSCKASGGPFRSYAISWVRQAPGQGPEWMGGIIPIFGTTKYAPKFQGRVTITADDFAGTVYMELSSLRSEDTAMYYCAKHMGYQVRETMDVWGKGTTVTVSS
VL: QSVLTQPPSVSAAPGQKVTISCSGSSSNIGNDYVSWYQQLPGTAPKLLIYDNNKRPSGIPDRFSGSKSGTSATLGITGLQTGDEANYYCATWDRRPTAYVVFGGGTKLTVLG
As to B1, in assay [1], the MW polypeptide + Fab6261 (kDa) came out at 204 kDa.

B2: CR6261 (antibody, V domains shown)
VH: EVQLVESGAEVKKPGSSVKVSCKASGGPFRSYAISWVRQAPGQGPEWMGGIIPIFGTTKYAPKFQGRVTITADDFAGTVYMELSSLRSEDTAMYYCAKHMGYQVRETMDVWGKGTTVTVSS
VL: QSVLTQPPSVSAAPGQKVTISCSGSSSNIGNDYVSWYQQLPGTAPKLLIYDNNKRPSGIPDRFSGSKSGTSATLGITGLQTGDEANYYCATWDRRPTAYVVFGGGTKLTVLG
One may read the EC50 as the midpoint of the concentration-response curve. A lower EC50 goes with a more potent agent. As a reminder, the Kd is the constant that tells how readily two partners part at equilibrium. The molecule B2 had an EC50 in assay [2] of 0.417 nM. In addition, the figures for the equilibrium dissociation constant (Kd) in assay [3] and in assay [4] were 1.1 nM and 0.48 nM, respectively.

B3: CR9114 (antibody, V domains shown)
VH: QVQLVQSGAEVKKPGSSVKVSCKSSGGTSNNYAISWVRQAPGQGLDWMGGISPIFGSTAYAQKFQGRVTISADIFSNTAYMELNSLTSEDTAVYFCARHGNYYYYSGMDVWGQGTTVTVSS
VL: SYVLTQPPAVSGTPGQRVTISCSGSDSNIGRRSVNWYQQFPGTAPKLLIYSNDQRPSVVPDRFSGSKSGTSASLAISGLQSEDEAEYYCAAWDDSLKGAVFGGGTQLTVL
The EC50 (read off the curve) is the concentration that produces a half-maximal response. A low value points to greater potency. With B3, in assay [5], the EC50 (read off the curve) was 0.02 µg/mL.
